Consider five molecules from article doi:10.64898/2025.12.10.693482, “Mechanism of NanR transcriptional activation of sialic acid metabolism in Streptococcus pneumoniae” (bioRxiv, 2025).

The target of one data set is T1, SpNanR (NanR) (Streptococcus pneumoniae, UniProt A0A4M6CQT5).
T1 construct: gene ybbH; recombinant, full-length SpNanR
The data set is described as follows: ITC (n = […]), DSF, crystal structures (8TX9, 8V4V), sedimentation velocity. Format: binding.

Another data set deals with T2, SpNanR D160A (NanR) (Streptococcus pneumoniae, UniProt A0A4M6CQT5, D160A).
T2 construct: gene ybbH; recombinant SpNanR variant
Briefly: DSF thermal shift (comparable to wild type) and tetramer stabilization by sedimentation velocity. Format: binding.

Data set [1] deals with the molecule itself. Briefly: SEC-SAXS; small-angle X-ray scattering with in-line size exclusion chromatography, SpNanR without N-acetylmannosamine-6-phosphate.
Data set [2] concerns the molecule itself. The data set is described as follows: AUC; sedimentation velocity, SpNanR 0.27–153.5 μM, with 2 mM N-acetylmannosamine-6-phosphate, 20 mM Tris-HCl pH 8.0, 300 mM NaCl, 20 °C; tetramer to dimers.
Data set [3] deals with the molecule itself. Briefly: AUC; sedimentation velocity, SpNanR 4.3–227.7 μM, no N-acetylmannosamine-6-phosphate, 20 mM Tris-HCl pH 8.0, 300 mM NaCl, 20 °C; weight-averaged s fitted to a dimer-tetramer self-association model (Sedphat); tetramer to dimers.
Data set [4] concerns the molecule itself. Briefly: AUC; sedimentation velocity of SpNanR variants and wild type at the same concentration, without N-acetylmannosamine-6-phosphate (Supplementary Figure 14C–E).
Another data set addresses SpNanR T18A (Streptococcus pneumoniae, UniProt A0A4M6CQT5 1-283, T18A). Briefly: MST; up to 5 uM protein; MST: 20 mM Tris-HCl pH 8.0, 300 mM NaCl, 0.05% Tween-20, 20 C, 20 nM FAM-DNA, overnight incubation; AUC: 50 nM FAM-DNA, 0.019-5 uM SpNanR, buffer not given in m. The note with it: protein: recombinant; chain copies: 2; label: 5'-6-FAM on sense strand; blunt 18 bp.
The target of another data set is SpNanR R67A (Streptococcus pneumoniae, UniProt A0A4M6CQT5 1-283, R67A). The data set is described as above. The note with it: protein: recombinant; chain copies: 2; label: 5'-6-FAM on sense strand; blunt 18 bp.
For a further data set, the target named is SpNanR R56A (Streptococcus pneumoniae, UniProt A0A4M6CQT5 1-283, R56A). The description is as above. The settings on record: protein: recombinant; chain copies: 2; label: 5'-6-FAM on sense strand; blunt 18 bp.

Residue numbers refer to the chain shown, from its start. In names and notes the source's numbering stands. Several values for one entry are separate records, joined by “and”; a condition that tells them apart may be missing. Identical values can stand only once.

T1 sequence (A0A4M6CQT5 entry or part of it): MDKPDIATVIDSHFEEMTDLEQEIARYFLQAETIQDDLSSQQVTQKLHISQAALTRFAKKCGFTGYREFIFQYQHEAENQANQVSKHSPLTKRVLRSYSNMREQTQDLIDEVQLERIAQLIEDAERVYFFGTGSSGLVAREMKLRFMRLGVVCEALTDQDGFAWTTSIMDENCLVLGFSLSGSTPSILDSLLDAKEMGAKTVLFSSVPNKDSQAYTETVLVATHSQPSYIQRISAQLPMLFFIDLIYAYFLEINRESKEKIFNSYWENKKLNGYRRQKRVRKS
T2 sequence (A0A4M6CQT5 whole entry D160A): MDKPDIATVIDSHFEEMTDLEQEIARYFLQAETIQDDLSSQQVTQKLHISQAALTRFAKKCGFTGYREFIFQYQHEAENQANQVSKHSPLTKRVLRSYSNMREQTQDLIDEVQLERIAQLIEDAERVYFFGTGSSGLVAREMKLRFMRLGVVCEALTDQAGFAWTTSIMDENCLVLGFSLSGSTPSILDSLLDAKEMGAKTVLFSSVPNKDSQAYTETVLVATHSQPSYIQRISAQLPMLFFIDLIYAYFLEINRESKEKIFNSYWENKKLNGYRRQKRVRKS

Molecule `CC(=O)N[C@@H]1C(O)O[C@H](COP(=O)(O)O)[C@@H](O)[C@@H]1O` (stereo partly shown) [manNAc-6-P, N-acetylmannosamine-6-phosphate] had a Kd on SpNanR (NanR) of 20.4 ± 6 µM. In addition, the “DSF thermal shift (comparable to wild type) and tetramer stabilization by sedime” value at SpNanR D160A (NanR) is “it still binds N-acetylmannosamine-6-phosphate and that this sufficiently stabilizes the tetrameric form”.

B1: Streptococcus pneumoniae NanR (SpNanR), wild type (natural protein, UniProt A0ACD7PT65 1-283, looked up)
chain: MDKPDIATIIDSHFEEMTDLEQEIARYFLQAETITDDLSSQQVTQKLHISQAALTRFAKKCGFTGYREFIFQYQHQAENQANQVSKHSPLTKRVLRSYSNMREQTQDLIDEIQLERIAQLIEDAERIYFFGTGSSGLVAREMKLRFMRLGVVCEALTDQDGFAWTTSIMDENCLVLGFSLSGSTPSILDSLLDAKEMGAKTVLFTSVPNKNSQTYTETVLVATHSQPSYIQRISAQLPMLFFIDLIYAYFLEINRESKEKIFNSYWENKKLNGYRRQKRVRKS
notes: NanR, RpiR family transcriptional regulator of Streptococcus pneumoniae; recombinant full-length protein; intact mass 32,611 Da; Cloned into pET30ΔSE; Exists in a dimer-tetramer equilibrium; also called SpNanR^WT
On to B1, for which the “stoichiometry N” value in data set [1] is 4 and 2. For the same molecule, the Kd was less than 0.2 µM in [2] and 97 µM in [3].

B2: SpNanR^D160A (natural protein)
chain: B1 chain with D160A
notes: NanR of Streptococcus pneumoniae (WP_000360349.1) with the substitution D160A; Variant of m1; source: E. coli BL21(DE3), purified
As for B2, in data set [4], the “stoichiometry N” value came to 2.

B3: SpNanR^R148A (natural protein)
chain: B1 chain with R148A
notes: NanR of Streptococcus pneumoniae (WP_000360349.1) with the substitution R148A; Variant of m1; source: E. coli BL21(DE3), purified
For the molecule B3, the “stoichiometry N” value in data set [4] amounted to 2.

B4: nanE recognition sequence, FAM-labeled (dsDNA)
DNA 1: TCTGAAAGTACTTTTAGA
DNA 2: TCTAAAAGTACTTTCAGA
Consider B4, for which the binding result with SpNanR T18A, with SpNanR R67A and with SpNanR R56A was “no binding” throughout.
